{"source": "patent US20020045591A1", "about": "“Methods and therapeutic compositions for treating cancer” (priority 1998, published 2002)", "molecules": {"B1": {"name": "N-cadherin tail: Cytoplasmic domain of chicken N-cadherin tagged with a Flag epitope (protein)", "chain": "MKRRDKERQAKQLLIDPEDDVRDNILKYDEEGGGEEDQDYDLSQLQQPDTVEPDAIKPVGIRRLDERPIHAEPQYPVRSAAPHPGDIGDFINEGLKAADNDPTAPPYDSLLVFDYEGSGSTAGSLSSLNSSSSGGEQDYDYLNDWGPRFKKLADMYGGGDD", "modifications": "left off: small tags and cut ends"}}, "target": "T1, LEF-1-β-catenin complex (Mus musculus, UniProt Q02248)", "T1 construct": "expressed in transfected cells; host or cells: CHO cells, transient transfection", "T1 sequence (Q02248 1-781)": "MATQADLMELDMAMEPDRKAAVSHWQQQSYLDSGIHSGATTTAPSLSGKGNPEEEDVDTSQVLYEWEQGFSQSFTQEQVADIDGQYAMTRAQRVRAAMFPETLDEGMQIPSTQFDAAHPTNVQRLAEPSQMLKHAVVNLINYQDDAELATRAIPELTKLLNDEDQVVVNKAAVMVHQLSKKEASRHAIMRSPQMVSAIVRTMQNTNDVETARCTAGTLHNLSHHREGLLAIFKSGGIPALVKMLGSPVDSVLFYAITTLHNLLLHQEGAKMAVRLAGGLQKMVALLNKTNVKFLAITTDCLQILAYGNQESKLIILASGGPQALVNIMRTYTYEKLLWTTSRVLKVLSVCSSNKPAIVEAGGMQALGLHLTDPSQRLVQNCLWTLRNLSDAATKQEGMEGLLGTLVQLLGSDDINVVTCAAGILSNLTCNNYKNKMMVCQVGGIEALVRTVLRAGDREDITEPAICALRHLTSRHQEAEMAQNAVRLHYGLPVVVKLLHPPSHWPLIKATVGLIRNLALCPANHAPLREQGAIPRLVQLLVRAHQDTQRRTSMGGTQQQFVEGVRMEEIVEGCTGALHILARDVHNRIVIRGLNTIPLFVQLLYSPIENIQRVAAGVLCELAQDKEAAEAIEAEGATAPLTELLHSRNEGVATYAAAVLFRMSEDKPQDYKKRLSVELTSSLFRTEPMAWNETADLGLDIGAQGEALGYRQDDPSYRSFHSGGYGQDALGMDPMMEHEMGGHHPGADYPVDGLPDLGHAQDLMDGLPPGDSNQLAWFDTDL", "assay": "Competition with LEF-1 for β-catenin binding (HA-LEF-1 immunoprecipitation, CHO cells)", "settings": "increasing amounts of N-cadherin tail cDNA, FIG. 8", "text": "Immunoblotting and immunoprecipitation: The following antibodies were used: polyclonal pan-cadherin or monoclonal anti cadherin (CH-19) and polyclonal anti β-catenin antibodies were from Sigma (Holon, Israel). Monoclonal anti β-catenin, 5H10 (from M. Wheelock), anti IL2Rα (from UBI), anti flag (M2, from IBI), anti HA (clone 12CA5, from Boehringer Mannheim, Germany), anti GFP (polyclonal, from Clontech, Palo Alto, Calif.), anti LEF-1 (polyclonal, kindly provided by Dr. R. Grosschedl). Secondary antibodies for Western blotting were goat anti rabbit or anti mouse conjugated to HRP (Amersham, Buckinghampshire, UK), and for immunofluorescence analysis the secondary antibodies were FITC-goat anti mouse (Cappel, USA) or rhodamine-anti rabbit antibodies (from Jackson Immuno-Research, West Grove, Pa.). […]\nThe N-cadherin tail inhibits the formation of a LEF-1-β-catenin complex: The inhibition by N-cadherin of β-catenin driven-transactivation could result from either displacement of LEF-1 binding to β-catenin by N-cadherin, or by formation of a ternary complex (cadherin-LEF-1-β-catenin) that has no transactivation potential. […] After transfection, LEF-1 was immunoprecipitated with anti HA antibody and the associated β-catenin was detected by Western blot analysis (FIG. 8A). […]", "data": [{"molecule": "B1", "values": [{"measurement": "β-catenin binding to LEF-1", "result": "inhibited β-catenin binding to LEF-1 in a dose dependent manner"}]}]}
